Data on three molecules can be found in publication PMC7335780, “Role of folding kinetics of secondary structures in telomeric G-overhangs in the regulation of telomere maintenance in Saccharomyces cerevisiae”.

Series [1] addresses T1, Cdc13-DBD (Saccharomyces cerevisiae (strain SCY325), UniProt P32797 497-694).
T1 sequence: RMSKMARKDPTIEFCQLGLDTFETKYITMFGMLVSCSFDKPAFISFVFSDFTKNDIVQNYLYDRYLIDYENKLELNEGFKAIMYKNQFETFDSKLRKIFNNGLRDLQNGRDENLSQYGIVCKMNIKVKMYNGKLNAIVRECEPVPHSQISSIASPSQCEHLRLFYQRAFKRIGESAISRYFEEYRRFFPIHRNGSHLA
Briefly: competition; competitor in water, 50 or 75 nM, vs 32P-ONG11; EMSA: 1x K+ buffer (20 mM potassium phosphate pH 7.0, 135 mM KCl, 9% glycerol), 10 min at 22 C/RT, 6% PAGE in 0.5x TBE; NMR in K+TD (K+ buffer + 0.25% Triton X-100, 1 mM DTT). As to conditions: protein: recombinant, tags: GST tag (pGEX-6T-2) removed with HRV 3C protease, vector-derived residues may remain, unfolded single strand.

In series [2] the target is T1, Cdc13-DBD. Briefly: EMSA; freshly boiled probe, protein titration; EMSA: 1x K+ buffer (20 mM potassium phosphate pH 7.0, 135 mM KCl, 9% glycerol), 10 min at 22 C/RT, 6% PAGE in 0.5x TBE; NMR in K+TD (K+ buffer + 0.25% Triton X-100, 1 mM DTT). As to conditions: protein: recombinant; tags: GST tag (pGEX-6T-2) removed with HRV 3C protease; vector-derived residues may remain; label: 5'-32P; single strand when freshly boiled; G-hairpin after long folding. In general terms: A gel shift assay detects complexes by their altered migration in electrophoresis.

Consider GTGTGGGTGTGGTGTGGGTGTGGTGTGGGTGTG (ssDNA) [ONG1 unfolded (H2O)], for which the binding result in the series with Cdc13-DBD [1] (label: none) is given as “binds”.
Regarding GTGTGGGTGTG (ssDNA) [ONG11 unfolded (H2O or freshly boiled)], the binding result with Cdc13-DBD [1] is given as “binds”.
Turning to GTGTGGGTGTG (ssDNA, 5' phosphate) [ONG11 5'-32P probe], in the series with Cdc13-DBD [2], the binding result is reported as “binds”.
